We go through one substance from patent publication US20220402990.

For data set [1], the system named is Activatable cytokine construct IFN-α2b-1204DNIdl-hIgG4.
The subject of data set [2] is Activatable cytokine construct ProC440 (N IFNα2b 0 1204DNIdL 0AA Fc).
Data set [3] has as its system Activatable cytokine construct IFN-α-2b 1490DNI-hIgG4.
Data set [4] has as its system IFN-α2b-1204DNIdl-hIgG4 with five amino acid residues added to the linker.

As for “recombinant human urokinase-type plasminogen activator (uPA)”, the “protease cleavage, gel electrophoresis” value in data set [1], in data set [3] and in data set [4] was “The results suggest that the proteases were effective at cleaving the cleavable moieties in the activatable cytokine constructs” throughout. Also, the “protease cleavage, mass spectrometry” value in data set [2] is on record as “Cleavage with uPa at the expected site in the CM was confirmed by Mass spectrometry analysis”.
